Assay [1] has as its target recombinant Fc chimeric conjugate of human HER2 (human) (UniProt P04626). The experiment in a line: ELISA, coated antigen, B-cell supernatant, IgG 1912,4 ng/ml.
Assay [2] has as its target recombinant Fc chimeric conjugate of human EGFR (human) (UniProt P00533). Described as above.
Assay [3] has as its target recombinant Fc chimeric conjugate of human HER3 (human) (UniProt P21860). The experiment in a line: ELISA, coated antigen, B-cell supernatant, IgG 250,4 ng/ml.
In assay [4] the target is recombinant Fc chimeric conjugate of human EGFR (human) (UniProt P00533). Described as above.
The target in assay [5] is recombinant Fc chimeric conjugate of human HER2 (human) (UniProt P04626). The experiment in a line: ELISA, coated antigen, B-cell supernatant, IgG 1143,3 ng/ml.
Assay [6] deals with recombinant Fc chimeric conjugate of human EGFR (human) (UniProt P00533). The description is as above.
In assay [7] the target is recombinant Fc chimeric conjugate of human HER3 (human) (UniProt P21860). The experiment in a line: ELISA, coated antigen, B-cell supernatant, IgG 1170,2 ng/ml.
Assay [8] addresses recombinant Fc chimeric conjugate of human EGFR (human) (UniProt P00533). Described as above.
Assay [9] addresses recombinant Fc chimeric conjugate of human HER3 (human) (UniProt P21860). The experiment in a line: ELISA, coated antigen, B-cell supernatant, IgG 146,1 ng/ml.
Assay [10] deals with recombinant Fc chimeric conjugate of human EGFR (human) (UniProt P00533). The description is as above.
Assay [11] concerns the target recombinant Fc chimeric conjugate of human HER3 (human) (UniProt P21860). The experiment in a line: ELISA, coated antigen, B-cell supernatant, IgG 59,9 ng/ml.
Assay [12] has as its target recombinant Fc chimeric conjugate of human EGFR (human) (UniProt P00533). The description is as above.
Assay [13] concerns the target recombinant Fc chimeric conjugate of human HER3 (human) (UniProt P21860). The experiment in a line: ELISA, coated antigen, B-cell supernatant, IgG 565,3 ng/ml.
The target of assay [14] is recombinant Fc chimeric conjugate of human EGFR (human) (UniProt P00533). Described as above.

Chain of UniProt P21860 (P21860 20-643, change not shown): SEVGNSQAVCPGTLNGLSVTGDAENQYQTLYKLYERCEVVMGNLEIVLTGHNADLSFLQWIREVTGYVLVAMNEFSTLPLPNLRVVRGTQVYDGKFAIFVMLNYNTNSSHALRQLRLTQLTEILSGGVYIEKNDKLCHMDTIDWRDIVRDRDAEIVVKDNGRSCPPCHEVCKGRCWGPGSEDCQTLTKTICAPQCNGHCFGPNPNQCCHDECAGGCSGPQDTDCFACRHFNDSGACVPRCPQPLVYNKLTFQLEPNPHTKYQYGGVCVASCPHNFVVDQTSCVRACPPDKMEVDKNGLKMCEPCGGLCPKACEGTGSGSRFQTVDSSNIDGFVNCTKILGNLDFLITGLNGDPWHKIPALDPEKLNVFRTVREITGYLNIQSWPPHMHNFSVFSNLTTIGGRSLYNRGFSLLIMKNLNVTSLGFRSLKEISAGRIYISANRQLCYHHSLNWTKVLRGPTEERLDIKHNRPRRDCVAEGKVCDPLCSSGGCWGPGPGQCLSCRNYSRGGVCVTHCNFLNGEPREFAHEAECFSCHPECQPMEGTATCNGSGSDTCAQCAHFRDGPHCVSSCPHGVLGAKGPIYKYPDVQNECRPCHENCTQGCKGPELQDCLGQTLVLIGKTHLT

B1: Antibody 6 (antibody, V domains shown)
VH: QSVEESGGRLVTPGTPLTLTCTVSGFSLSSYTMGWVRQAPGKGLEYIGIINTGGYTYYASWAKGRFTISRTSTTVDLSMTSLTTEDTATYFCARVYPGSSCDLWGQGTLVTVSS
VL: DVVMTQTPASVSEPVGGTVTIKCQASQSISSSYLSWYQQKPGQPPKLLIYRASTLESGVPSRFKGSGSGTEFTLTISDLECADAATYYCQCTDYAGSYVGGAFGGGTEVVVK
B1: the Optical density (OD) in [1] is 3.2 OD; in assay [2], 0.4 OD.

B2: Antibody 55 (antibody, V domains shown)
VH: QSLEESGGRLVTPGGSLTLTCTVSGSDISSYDMSWVRQAPGKGLEWIGYIWSGTTIYYASWPKGRFTISKTSSTTVDLKMTSLTTEDTATYFCAAINIYTYVYSLWGPGTLVTVSS
VL: AYDMTQTPASVEAAVGGTVTIKCQASESIYSSLAWYQQKSGQPPKLLIYLASTLASGVPSRFKGSGSGTDYTLTISGVECADAATYYCQQHYSGSNVDNAFGGGTEVVVK
As to B2, the results for the Optical density (OD) in [3] and in assay [4] were 3.3 OD and 2.7 OD, respectively.

B3: Antibody 34 (antibody, V domains shown)
VH: QEQLVESGGGLVQPEGSLTLTCKASGFSFSSGYYMCWVRQAPGKGLEWIACIYADSSESTYYASWAKGRFTISKTSSTTVTLQVTSLTAADTATYFCARWGTVAGYSTFNLWGPGTLVTVSS
VL: DVVMTQTPASVSEPVGGTVTIKCQASQSISTALAWYQQKPGQPPKLLIYFTSTLASGVSSRFKGSGSGAEFTLTISDLECADAATYYCQGYYYVTNFPFGGGTEVVVK
Take B3: the Optical density (OD) in [5] was 3.1 OD; in [6] it was 0.3 OD.

B4: Antibody 32 (antibody, V domains shown)
VH: QSVEESGGRLVTPGTPLTLTCTVSGFSLSSYDMSWVRQAPGKGLEWIGFIDGDSNTYDATWAKGRFTISKTSTTVDLKITSPTTEDTATYFCTRGFNLWGQGTLVTVSS
VL: DVVMTQTPASVSEPVGGTVTIKCQASQSISSYLAWYQQKPGQPPKLLIYKASTLASGVSSRFKGSGSGTEFTLTISDLECADAATYYCQCSAGGRSGIGGFGGGTEVVVK
Take B4: the Optical density (OD) stood at 2.3 OD in [7] and 0.3 OD in assay [8].

B5: Antibody 52 (antibody, V domains shown)
VH: QSVEESGGRLVTPGTALTLTCTVSGFSLSSGDMSWVRQAPGKGLEWIGYIWSGVSTYYANWAKGRFTISKTSSTTVDLKMTSLTIEDTATYFCARVDFYSYVYSLWGPGTLVTVSS
VL: ALVMTQTPASVEAAVGGTVTIKCQASQSISSCLAWYQQKPGQPPKLLIYSASTLASGVPSRFKGSGSGTEYTLTISGVECADAATYYCQQHYTSNNIDNAFGGGTEVVVK
Consider B5, for which the Optical density (OD) in assay [9] stood at 2.1 OD; in assay [10], 2.7 OD.

B6: Antibody 60 (antibody, V domains shown)
VH: QSLEESGGRLVTPGGSLTLTCTVSGSDISSYDMSWVRQAPGKGLEWIGYIWSGTTTYYANWAKGRFTISKTSSTTVDLKMTSLTTEDTATYFCATVNIYTYVYSLWGPGTLVTVSS
VL: AYDMTQTPASVEVAVGGTVTIKCQASQSISTALAWYQQKSGQPPKLLIYLASTLASGVPSRFKGSGSGTEYTLTISGVECADAATYYCQQHYSGNNVDNAFGGGTEVVVK
As to B6, the figures for the Optical density (OD) in assay [11] and in assay [12] were 1 OD and 2.8 OD, respectively.

B7: Antibody 56 (antibody, V domains shown)
VH: QSLEESGGRLVTPGTPLTLTCTASGFSLSSYDLSWVRQAPGKGLEWIAYIWSGDKTYYANWAKGRFTISKTSSTTVDLKMTSLTTEDTATYFCATVNIYSYVYSLWGPGTLVTVSS
VL: AYDMTQTPASVEVAVGGTVTIKCQASQSISTALAWYQQKSGQPPKLLIYLASTLASGVPSRFKGSGSGTEYTLTISGVECADAATYYCQQHYSSNNVDNAFGGGTEVVVK
With B7, the figures for the Optical density (OD) in [13] and in assay [14] were 3.1 OD and 3.4 OD, respectively.

The record behind these values is EP2727942A1.
